Source: patent US20040019193A1, “Mob-5/hmob-5 as a cancer diagnostic marker” (priority 2002, published 2004)
Blank lines part the entries; values can stand above or below the molecule they belong to.

How the values were obtained:
Rat-1 cells = assay: Over expression of Mob-5 in Rat-1 cells, morphological transformation; type: cell-based; details: retroviral over expression of Mob-5 alone in Rat-1 cells
Text: Over expression of the full length mob-5 cDNA with retroviral vector in a variety of rodent fibroblasts including Rat-1 cells led to high level secretion of Mob-5 protein with a predicted MW of 23 KD into the culture media, which could be readily detected by western blot using polyclonal antibody directed against the recombinant Mob-5 (FIG. 4A).
Construction of mob-5 mammalian expression construct A 680-bp BspHI-Bgl II restriction fragment containing the entire coding region of mob-5 was generated by PCR using cloned mob-5 cDNA as a template. The targeting construct was subsequently inserted between the Nco I and Bam I sites of retroviral vector pMFG-S (Danos and Mulligan, 1988; Dranoff, G. et al. 1993) and sequenced to ensure the sequence accuracy.
Transfection and Retroviral Infection Recombinant plasmids were transfected into target cells by the standard calcium phosphate precipitation method. For retroviral packaging, pMFG-S-Mob-5 was cotransfected with pCMV-Neo vector at a rate of 10:1 (10 μg of pCMV-S-rMob-5: 1 μg of pCMV-Neo) into the CRIP packaging cells to produce G418 (1 mg/ml) resistant stable cell lines. Retroviral infection was carried out essentially as described previously (Zhang et al., 1998). […]

[1] = system: putative Mob-5 receptor on the cell surface of h-ras transformed RIE cells; assay: AP fusion protein receptor binding assay on RIE cells before and after h-ras transformation; parameters: species or system rat; details: normal versus h-ras transformed RIE cells, media at 0.7 unit/ml
Procedure: (E) Mob-5-AP, but not hMob-5-AP, binds specifically to the cell surface of oncogenic h-ras transformed RIE cells. Both the normal and oncogenic h-ras transformed RIE cells were analyzed for the ability to bind Mob-5-AP versus AP alone. The same experiment was carried out with hMob-5-AP and AP alone. The cell surface bound AP activity was measured to reveal a species specific Mob-5 binding activity present only on the cell surface of the h-ras transformed RIE cells. The result is representative of at least 3 independent experiments.
As in Rat-1 cells, the putative Mob-5 receptor was also found to be differentially expressed between the normal and h-ras transformed RIE cells using Mob-5-AP fusion protein as a ligand (FIG. 4E, left panel). To determine whether hMob-5-AP could also differentially bind to the cell surface of h-ras transformed RIE cells, the receptor binding assay was conducted using hMob-5-AP in place of Mob-5-AP.
mob-5 expression is activated by both oncogenic h-ras and k-ras in intestinal epithelial cells Cancer arises from the epithelial cells rather than fibroblasts and K-ras mutations have been tightly linked with cancers of gastric intestinal origins (Kiaris and Spandidos, 1995). […] After the final 5 min extension at 72 ° C., the RT-PCR products were analyzed on a 1.5 % agarose gel. […]

hMob-5 = target: T1, hMob-5 (Homo sapiens, UniProt Q13007); assay: GBA bead capture ELISA for Mob-5, standard curve
T1 sequence (Q13007 1-207 isoform Q13007-2): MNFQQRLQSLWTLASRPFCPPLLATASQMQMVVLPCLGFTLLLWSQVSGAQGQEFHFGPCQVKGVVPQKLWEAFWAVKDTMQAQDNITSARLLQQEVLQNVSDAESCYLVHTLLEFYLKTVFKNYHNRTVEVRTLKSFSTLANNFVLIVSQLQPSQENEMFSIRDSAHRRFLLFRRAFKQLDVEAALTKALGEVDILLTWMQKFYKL
Procedure: This allows the use of GBA in a method for detecting Mob-5 in an ELISA. GBA is utilized to capture the antigen (i.e. Mob-5) and a biotinylated monoclonal antibody to Mob-5 is used to detect the antigen. The use of GBA allows for higher capacity and lower costs when compared to the traditional ELISA method. The method is performed by diluting a biotinylated Mab-hMob-5 (for example, the monoclonal antibody produced from hybridoma clone L-14) 1:500 in PBST (Phosphate Buffered Saline, Tween 0.05%); diluting Streptavidin-HRP (Sigma) 1:500 in PBST; mixing the diluted Mab-hMob-5 with the diluted Streptavidin-HRP in equal volume (for example, […]); letting the mixture sit for 5-10 minutes; washing the GBA beads with PBST twice; spinning and removing the upper liquid phase with an aspirator; resuspending the washed GBA beads in PBST as a 50% suspension; mixing […] of a sample with 100 ml of the diluted Mab-hMob-5 and Streptavidin-HRP mixture in a tube; adding […] of resuspended GBA beads to the tube; allowing the tube to rotate on a roller for 1-2 hours; spinning down the GBA beads for 2 minutes; aspirating the supernatant; washing the beads with 1 ml of PBST twice; washing the beads with dH20 twice; removing the supernatant; adding […] of horseradish peroxidase (HRP) substrate with H2O2 to resuspend the beads; allowing the color to develop in the dark for as long as needed (from hours, to days or weeks). A hMob-5-9×His medium can be utilized as a positive control. One skilled in the art would know that variations of this protocol are possible. For example, the GBA beads may be added to the sample prior to the addition of the biotinylated Mab/streptavidin-HRP mixture, alkaline phosphatase labeled streptavidin can be used, wash times may vary, spin times may vary and development times may vary. By utilizing this method, representative results for a standard curve were obtained.

B1: Mob-5: rat secreted protein of 183 amino acids, 23 KD, encoded by oncogenic ras target gene mob-5 (protein)
chain: PELQGQEFRFGPCQVTGVVLPELWEAFWTVKNTVKTQDELTSVRLLKPQVLQNVSDAESCYLAHSLLKFYLNTVFKNYHSKIVKFKVLKSFSTLANNFLVIMSKLQPSKDNAMLPISDSARRRFLLYHRTFKQLDIEVALAKAFGEVDILLAWMQNFYQL
morphological transformation on over expression (Rat-1 cells): did not lead to any obvious morphological transformation

B2: hMob-5-AP: human Mob-5 fused at the C-terminus with alkaline phosphatase, 90 KD (SEQ ID NO: 10) (protein)
chain: MNFQQRLQSLWTLASRPFCPPLLATASQMQMVVLPCLGFTLLLWSQVSGAQGQEFHFGPCQVKGVVPQKLWEAFWAVKDTMQAQDNITSARLLQQEVLQNVSDAESCYLVHTLLEFYLKTVFKNYHNRTVEVRTLKSFSTLANNFVLIVSQLQPSQENEMFSIRDSAHRRFLLFRRAFKQLDVEAALTKALGEVDILLTWMQKFYKLGSSGIIPVEEENPDFWNREAAEALGAAKKLQPAQTAAKNLIIFLGDGMGVSTVTAARILKGQKKDKLGPEIPLAMDRFPYVALSKTYNVDKHVPDSGATATAYLCGVKGNFQTIGLSAAARFNQCNTTRGNEVISVMNRAKKAGKSVGVVTTTRVQHASPAGTYAHTVNRNWYSDADVPASARQEGCQDIATQLISNMDIDVILGGGRKYMFPMGTPDPEYPDDYSQGGTRLDGKNLVQEWLAKRQGARYVWNRTELMQASLDPSVTHLMGLFEPGDMKYEIHRDSTLDPSLMEMTEAALRLLSRNPRGFFLFVEGGRIDHGHHESRAYRALTETIMFDDAIERAGQLTSEEDTLSLVTADHSHVFSFGGYPLRGSSIFGLAPGKARDRKAYTVLLYGNGPGYVLKDGARPDVTESESGSPEYRQQSAVPLDEETHAGEDVAVFARGPQAHLVHGVQEQTFIAHVMAFAACLEPYTACDLAPPAGTTDAAHPG
cell surface binding (bound AP activity) versus AP alone [1]: did not exhibit any preferential cell surface binding

OD405 (hMob-5; hMob-5 2 ng/ml): 0.216
OD405 (hMob-5; hMob-5 10 ng/ml): 0.941
OD405 (hMob-5; hMob-5 20 ng/ml): 1.881
B3: hMob-5: human homolog of Mob-5, secreted protein over expressed in colon cancer (protein)
chain: MNFQQRLQSLWTLASRPFCPPLLATASQMQMVVLPCLGFTLLLWSQVSGAQGQEFHFGPCQVKGVVPQKLWEAFWAVKDTMQAQDNITSARLLQQEVLQNVSDAESCYLVHTLLEFYLKTVFKNYHNRTVEVRTLKSFSTLANNFVLIVSQLQPSQENEMFSIRDSAHRRFLLFRRAFKQLDVEAALTKALGEVDILLTWMQKFYKL
